Earlier results, collected in patent US20200247855A1, “THERAPY AND DIAGNOSTICS” (OXFORD UNIVERSITY INNOVATION LIMITED, priority 2017, published 2020).

Assays:
CCL21_HUMAN = target: T1, CCL21_HUMAN (Homo sapiens, UniProt O00585); conditions: data obtained from publications [20-22,32]; read-out: Kd, CCL21_HUMAN, previously described evasins; cited from earlier work
T1 sequence (O00585 24-134): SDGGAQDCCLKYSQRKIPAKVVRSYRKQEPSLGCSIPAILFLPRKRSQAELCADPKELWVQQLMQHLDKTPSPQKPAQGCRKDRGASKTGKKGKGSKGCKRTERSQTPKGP

CCL1_HUMAN = target: T2, CCL1_HUMAN (Homo sapiens, UniProt P22362); conditions: read-out: Kd, CCL1_HUMAN, previously described evasins; data obtained from publications [20-22,32]; cited from earlier work
T2 sequence (P22362 24-96): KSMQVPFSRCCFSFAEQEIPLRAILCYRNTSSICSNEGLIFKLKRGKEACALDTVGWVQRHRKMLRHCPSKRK

CCL5_HUMAN = target: T3, CCL5_HUMAN (Homo sapiens, UniProt P13501); conditions: read-out: Kd, CCL5_HUMAN, previously described evasins; data obtained from publications [20-22,32]; cited from earlier work
T3 sequence (P13501 24-91): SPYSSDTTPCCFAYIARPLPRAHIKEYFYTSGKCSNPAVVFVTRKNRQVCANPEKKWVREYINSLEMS

CCL17_HUMAN = target: T4, CCL17_HUMAN (Homo sapiens, UniProt Q92583); conditions: read-out: Kd, CCL17_HUMAN, previously described evasins; data obtained from publications [20-22,32]; cited from earlier work
T4 sequence (Q92583 24-94): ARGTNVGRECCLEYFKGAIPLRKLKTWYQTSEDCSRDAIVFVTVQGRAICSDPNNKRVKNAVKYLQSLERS

CCL18_HUMAN = target: T5, CCL18_HUMAN (Homo sapiens, UniProt P55774); conditions: read-out: Kd, CCL18_HUMAN, previously described evasins; data obtained from publications [20-22,32]; cited from earlier work
T5 sequence (P55774 21-89): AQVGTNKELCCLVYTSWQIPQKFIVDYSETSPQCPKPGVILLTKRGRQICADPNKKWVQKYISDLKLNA

CCL19_HUMAN = target: T6, CCL19_HUMAN (Homo sapiens, UniProt Q99731); conditions: read-out: Kd, CCL19_HUMAN, previously described evasins; data obtained from publications [20-22,32]; cited from earlier work
T6 sequence (Q99731 22-98): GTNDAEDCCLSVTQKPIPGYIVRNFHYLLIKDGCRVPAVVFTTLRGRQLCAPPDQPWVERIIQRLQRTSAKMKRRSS

CCL22_HUMAN = target: T7, CCL22_HUMAN (Homo sapiens, UniProt O00626); conditions: read-out: Kd, CCL22_HUMAN, previously described evasins; data obtained from publications [20-22,32]; cited from earlier work
T7 sequence (O00626 25-93): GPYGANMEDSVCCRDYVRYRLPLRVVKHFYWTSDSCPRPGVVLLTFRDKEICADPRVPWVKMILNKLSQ

CCL26_HUMAN = CCL26_HUMAN (Homo sapiens, UniProt Q9Y258); conditions: read-out: Kd, CCL26_HUMAN, previously described evasins; data obtained from publications [20-22,32]; cited from earlier work
Sequence of CCL26_HUMAN (Q9Y258 24-94): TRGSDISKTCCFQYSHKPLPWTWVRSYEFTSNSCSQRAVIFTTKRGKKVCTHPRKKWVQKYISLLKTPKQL

CCL27_HUMAN = target: T8, CCL27_HUMAN (Homo sapiens, UniProt Q9Y4X3); conditions: data obtained from publications [20-22,32]; cited from earlier work
T8 sequence (Q9Y4X3 25-112): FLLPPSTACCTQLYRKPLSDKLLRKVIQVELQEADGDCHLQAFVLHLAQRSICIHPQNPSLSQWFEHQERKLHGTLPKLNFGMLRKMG

B1: EVASIN4: previously described tick CKBP evasin 4, from Rhipicephalus sanguineus (protein, listed as Rhipicephalus sanguineus)
chain: EVPQMTSSSAPDLEEEDDYTAYAPLTCYFTNSTLGLLAPPNCSVLCNSTTTWFNETSPNNASCLLTVDFLTQDAILQENQPYNCSVGHCDNGTCAGPPRHAQCW
CCL21_HUMAN
  Kd: 0.01 nM
CCL1_HUMAN
  Kd: 0.2 nM
CCL5_HUMAN
  Kd: 0.09 nM
CCL17_HUMAN
  Kd: 0.61 nM
CCL18_HUMAN
  Kd: 0.03 nM
CCL19_HUMAN
  Kd: 0.14 nM
CCL22_HUMAN
  Kd: 0.43 nM
CCL26_HUMAN
  Kd: 0.88 nM
CCL27_HUMAN
  Kd, CCL27_HUMAN, previously described evasins: No Binding
